From patent publication US20250154283A1 (published 2025)

T1: biotinylated cynomolgus monkey VWF cysteine knot (CK) domain construct (cynomolgus monkey, biotinylated in vitro (BirA) on the biotinylation tag; one N-glycan)
T1 construct: Expressed in HEK293 EBNA cells; disulfide-linked homodimer; also called cyno VWF CK; cyno VWF CK domain; not shown: in vitro biotinylation tag, HRV-3C site and 3 VWF residues before the CK domain
T1 chain: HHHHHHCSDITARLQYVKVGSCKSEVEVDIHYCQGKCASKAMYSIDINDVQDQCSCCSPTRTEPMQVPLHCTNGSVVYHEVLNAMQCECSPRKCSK


Columns and labels:
[1] = molecular target: T2, biotinylated human VWF cysteine knot (CK) domain construct (human, UniProt P04275 2724-2813, biotinylated in vitro (BirA) on the biotinylation tag; one N-glycan); test: SPR, scFv captured via anti-SV5, CK domain injected, pH 5.5, apparent Kd;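 further: scFvs from crude yeast supernatants captured on chip-bound anti-SV5 antibody, Kd computed as koff divided by kon, dimeric CK construct likely makes affinity appear higher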
T2 construct: Expressed in HEK293 EBNA cells; disulfide-linked homodimer; also called human VWF CK; human VWF CK domain; not shown: in vitro biotinylation tag, HRV-3C site and 3 VWF residues before the CK domain

[2] = molecular target: T2, biotinylated human VWF cysteine knot …; test: SPR, scFv captured via anti-SV5, CK domain injected, pH 7.4, apparent Kd;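 further: scFvs from crude yeast supernatants printed on an amine-coupled anti-SV5 lawn, Kd computed as koff over kon, likely overestimating affinity because the CK construct is dimeric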
[3] = molecular target: T1, biotinylated cynomolgus monkey VWF …; test: as above

Kd [1]	Kd [2]	Kd [3]	Binder
0.043 nM	0.116 nM	0.061 nM	1374_Lib8_scFv (scFv, VH-linker-VL; not shown: C-terminal 3xFLAG and SV5 tags) scFv: EVQLVESGGGLVQPGRSLRLSCAASGVDFSTYAMHWVRQAPGKGLEWVSAISSSGAYTDYADSVEGRFTISRDNAKNSLYLQMNSLRAEDTAVYYCATDRGPFSGYGTQGWFDPWGQGTLVTVSSSGGSTITSYNVYYTKLSSSGTDIQMTQSPSSLSASVGDRVTITCRASQTIRSYLAWYQQKPGKAPKLLIYGASDLQSGVPSRFSGSGSGTDFTLTISSLQPEDVATYYCQQYANFPITFGGGTKVEIK
0.389 nM	0.305 nM	0.039 nM	1405_Lib8_scFv (scFv, VH-linker-VL; not shown: C-terminal 3xFLAG and SV5 tags) scFv: EVQLVESGGGLVQPGRSLRLSCAASGVDFSTYAMHWVRQAPGKGLEWVSAISSSGAYTDYADSVEGRFTISRDNAKNSLYLQMNSLRAEDTAVYYCATDRGPFSGYGTQGWFDPWGQGTLVTVSSSGGSTITSYNVYYTKLSSSGTDIQMTQSPSSLSASVGDRVTITCRASRDITSYLAWYQQKPGKAPKLLIYHASTLEAGVPSRFSGSGSGTDFTLTISSLQPEDVATYYCQQYGDFPPTFGGGTKVEIK
0.045 nM	0.092 nM	0.059 nM	Lib1_P1_A6_scFv (scFv, VH-linker-VL; not shown: C-terminal 3xFLAG and SV5 tags) scFv: QVQLVQSGAEVKKPGASVKVSCKVSGSTFSNYAIHWVRQAPGKGLEWMGGIVPLSGTAIYAQKFQGRVTMTEDTSTDTAYMELSSLKSEDTAVYYCARDQGESSGWYAIYYGMDVWGQGTTVTVSSSGGSTITSYNVYYTKLSSSGTDIQMTQSPSSVSASVGDRVTITCRASQGIGTWLAWYQQKPGKAPKLLIYGSSSRASGVPSRFSGSGSGTDFTLTISSLQPEDFANYYCQQSYGKPTFGGGTKVEIK
0.033 nM	3.11 nM	–	Lib4_P2_A11_scFv (scFv, VH-linker-VL; also called Lib4_P2_All; not shown: C-terminal 3xFLAG and SV5 tags) scFv: QVQLQESGPGLVKPSQTLSLTCTVSGVTFSSYGWSWIRQPPGKGLEWIGYVDTSGSTDYNPSLKSRVTMSVDTSKNQFSLKVNSVTAADTAVYYCARTTYYYDSSGFARGWFDPWGQGTLVTVSSSGGSTITSYNVYYTKLSSSGTEIVMTQSPATLSLSPGERATLSCRASRSISTNLAWYQRKPGQAPRLLIYDTSNRAPGIPARFSGSGSGTDFTLTISSLEPEDFAVYYCLQYDVSPYTFGGGTKVEIK
0.123 nM	0.493 nM	0.128 nM	Lib4_P2_A5_scFv (scFv, VH-linker-VL; not shown: C-terminal 3xFLAG and SV5 tags) scFv: QVQLQESGPGLVKPSQTLSLTCTVSGSSISSSSDYWSWIRQPPGKGLEWIGYIDISGDADYNPSLKSRVTMSVDTSKNQFSLKVNSVTAADTAVYYCARHLSSGWYGTYYFDYWGQGTLVTVSSSGGSTITSYNVYYTKLSSSGTEIVMTQSPATLSLSPGERATLSCRASQNIHSNLAWYQQKPGQAPRLLIYDASSRATGIPARFSGSGSGTDFTLTISSLEPEDFAVYYCQQGYTKPLTFGGGTKVEIK
0.076 nM	1.78 nM	–	Lib1_P1_A2_scFv (scFv, VH-linker-VL; not shown: C-terminal 3xFLAG and SV5 tags) scFv: QVQLVQSGAEVKKPGASVKVSCKVSEGTLSRHYINWVRQAPGKGLEWMGGINAKSGATIYAQKFQGRVTMTEDTSTDTAYMELSSLKSEDTAVYYCAKDTGDDILTDYSDAFDIWGQGTMVTVSSSGGSTITSYNVYYTKLSSSGTDIQMTQSPSSVSASVGDRVTITCRASQNIGTSLAWYQQKPGKAPKLLIYGASNLESGVPSRFSGSGSGTDFTLTISSLQPEDFANYYCLQYNDWPPLYSFGGGTKVEIK
1.05 nM	2.11 nM	–	16_Lib8_scFv (scFv, VH-linker-VL; not shown: C-terminal 3xFLAG and SV5 tags) scFv: EVQLVESGGGLVQPGRSLRLSCAASGFRFDEYDMHWVRQAPGKGLEWVSAISSESASIDYADSVEGRFTISRDNAKNSLYLQMNSLRAEDTAVYYCARDGAYGDYFDYWGQGTMVTVSSSGGSTITSYNVYYTKLSSSGTDIQMTQSPSSLSASVGDRVTITCRASQDIKSWLAWYQQKPGKAPKLLIYGASTLQSGVPSRFSGSGSGTDFTLTISSLQPEDVATYYCQQSYSAPYTFGGGTKVEIK
0.338 nM	0.589 nM	0.187 nM	Lib1_P1_D1_scFv (scFv, VH-linker-VL; not shown: C-terminal 3xFLAG and SV5 tags) scFv: QVQLVQSGAEVKKPGASVKVSCKVSGDTFTDRYIHWVRQAPGKGLEWMGGINTIFGTAIYAQKFQGRVTMTEDTSTDTAYMELSSLKSEDTAVYYCAREGATVSTNFDYWGQGTLVTVSSSGGSTITSYNVYYTKLSSSGTDIQMTQSPSSVSASVGDRVTITCRASQDIRKSLAWYQQKPGKAPKLLIYDISNRPSGVPSRFSGSGSGTDFTLTISSLQPEDFANYYCQQGYSAPYGFGGGTKVEIK
0.075 nM	0.307 nM	0.134 nM	Lib4_P2_H3_scFv (scFv, VH-linker-VL; not shown: C-terminal 3xFLAG and SV5 tags) scFv: QVQLQESGPGLVKPSQTLSLTCTVSGSTFGDYAWSWIRQPPGKGLEWIGYINHIGNADYNPSLKSRVTMSVDTSKNQFSLKVNSVTAADTAVYYCARDGVESPEVPNYYYYGMDVWGQGTTVTVSSSGGSTITSYNVYYTKLSSSGTEIVMTQSPATLSLSPGERATLSCRASHSIGSNLAWYQQKPGQAPRLLIYDATNRAPGIPARFSGSGSGTDFTLTISSLEPEDFAVYYCQQSYTNPTFGGGTKVEIK
1.16 nM	0.088 nM	0.002 nM	7046_Lib8_scFv (scFv, VH-linker-VL; not shown: C-terminal 3xFLAG and SV5 tags) scFv: EVQLVESGGGLVQPGRSLRLSCAASGFNFHNYDMHWVRQAPGKGLEWVSAISGSGYTADYADSVEGRFTISRDNAKNSLYLQMNSLRAEDTAVYYCAKSHSSGWSSAFDIWGQGTMVTVSSSGGSTITSYNVYYTKLSSSGTDIQMTQSPSSLSASVGDRVTITCRASQTIGYWLAWYQQKPGKAPKLLIYDATNLATGVPSRFSGSGSGTDFTLTISSLQPEDVATYYCQHYNPYSQVTFGGGTKVEIK
2.28 nM	0.217 nM	0.137 nM	9621_Lib8_scFv (scFv, VH-linker-VL; not shown: C-terminal 3xFLAG and SV5 tags) scFv: EVQLVESGGGLVQPGRSLRLSCAASGFSFSMYAMHWVRQAPGKGLEWVSAISPSGDATDYADSVEGRFTISRDNAKNSLYLQMNSLRAEDTAVYYCARGMQDYGHYYYYYMDVWGKGTTVTVSSSGGSTITSYNVYYTKLSSSGTDIQMTQSPSSLSASVGDRVTITCRASQDISTSLAWYQQKPGKAPKLLIYGASSLETGVPSRFSGSGSGTDFTLTISSLQPEDVATYYCQQGYIAPRTFGGGTKVEIK
1.43 nM	0.691 nM	0.697 nM	Lib1_P1_C6_scFv (scFv, VH-linker-VL; not shown: C-terminal 3xFLAG and SV5 tags) scFv: QVQLVQSGAEVKKPGASVKVSCKVSGYTFASHYIHWVRQAPGKGLEWMGGMDPATGQTIYAQKFQGRVTMTEDTSTDTAYMELSSLKSEDTAVYYCAKGDRSSWYEVLSFQHWGQGTLVTVSSSGGSTITSYNVYYTKLSSSGTDIQMTQSPSSVSASVGDRVTITCRASQGISTDLAWYQQKPGKAPKLLIYDASILQRGVPSRFSGSGSGTDFTLTISSLQPEDFANYYCQQVRTYPFTFGGGTKVEIK
0.039 nM	0.167 nM	0.684 nM	9301_Lib8_scFv (scFv, VH-linker-VL; not shown: C-terminal 3xFLAG and SV5 tags) scFv: EVQLVESGGGLVQPGRSLRLSCAASGFNFHNYDMHWVRQAPGKGLEWVSAISGSGYTADYADSVEGRFTISRDNAKNSLYLQMNSLRAEDTAVYYCAKSHSSGWSSAFDIWGQGTMVTVSSSGGSTITSYNVYYTKLSSSGTDIQMTQSPSSLSASVGDRVTITCRASQTIGYWLAWYQQKPGKAPKLLIYDASVPESGVPSRFSGSGSGTDFTLTISSLQPEDVATYYCQQTLSSPWTFGGGTKVEIK
1.38 nM	3.17 nM	0.55 nM	8226_Lib8_scFv (scFv, VH-linker-VL; not shown: C-terminal 3xFLAG and SV5 tags) scFv: EVQLVESGGGLVQPGRSLRLSCAASGFNFHNYDMHWVRQAPGKGLEWVSAISGGAVSTDYADSVEGRFTISRDNAKNSLYLQMNSLRAEDTAVYYCARSSWYGGQIDFWGQGTLVTVSSSGGSTITSYNVYYTKLSSSGTDIQMTQSPSSLSASVGDRVTITCRASQDISGWLAWYQQKPGKAPKLLIYAASSLQDGVPSRFSGSGSGTDFTLTISSLQPEDVATYYCQQSYRIPSTFGGGTKVEIK
0.487 nM	3.15 nM	1.01 nM	Lib8_P4_C10_scFv (scFv, VH-linker-VL; not shown: C-terminal 3xFLAG and SV5 tags) scFv: EVQLVESGGGLVQPGRSLRLSCAASGFNFHNYDMHWVRQAPGKGLEWVSAISGSSDTMDYADSVEGRFTISRDNAKNSLYLQMNSLRAEDTAVYYCVRASWYGTFFDYWGQGTLVTVSSSGGSTITSYNVYYTKLSSSGTDIQMTQSPSSLSASVGDRVTITCRASQDISGWLAWYQQKPGKAPKLLIYAASSLQDGVPSRFSGSGSGTDFTLTISSLQPEDVATYYCQQSYRIPSTFGGGTKVEIK
0.274 nM	0.391 nM	0.167 nM	1081_Lib8_scFv (scFv, VH-linker-VL; not shown: C-terminal 3xFLAG and SV5 tags) scFv: EVQLVESGGGLVQPGRSLRLSCAASGFNFHNYDMHWVRQAPGKGLEWVSAISGGAVSTDYADSVEGRFTISRDNAKNSLYLQMNSLRAEDTAVYYCARSSWYGGQIDFWGQGTLVTVSSSGGSTITSYNVYYTKLSSSGTDIQMTQSPSSLSASVGDRVTITCRASESVSSWLAWYQQKPGKAPKLLIYGASTLEGGVPSRFSGSGSGTDFTLTISSLQPEDVATYYCQQAYRTPVTFGGGTKVEIK
1.09 nM	0.101 nM	0.016 nM	5802_Lib4_scFv (scFv, VH-linker-VL; not shown: C-terminal 3xFLAG and SV5 tags) scFv: QVQLQESGPGLVKPSQTLSLTCTVSGYSISSGDYHWSWIRQPPGKGLEWIGYINPSGSADYNPSLKSRVTMSVDTSKNQFSLKVNSVTAADTAVYYCARDGVAATYYYYYGMDVWGQGTTVTVSSSGGSTITSYNVYYTKLSSSGTEIVMTQSPATLSLSPGERATLSCRASHSIGSNLAWYQQKPGQAPRLLIYDATTRATGIPARFSGSGSGTDFTLTISSLEPEDFAVYYCQQAYSFPLTFGGGTKVEIK
